The values below come from PMC6023931 (Nature Communications, 2018).

The series concerns the molecule itself. The experiment in a line: SEC-MALS; samples at 1 mg/ml, Superdex 200 Increase 10/300, 20 mM Tris-HCl, 150 mM NaCl, 0.5 mM TCEP, pH 8.0; run in triplicates.

Residue numbers refer to the chain shown, from its start. In names and notes the source's numbering stands.

B1: ΔN-TLK2, unphosphorylated (N-terminal deletion, with coiled-coil region, kinase domain and C-tail) (domain or fragment, human, UniProt Q86UE8 191-772, looked up)
chain: TEHSCSSQKQISIQHRQTQSDLTIEKISALENSKNSDLEKKEGRIDDLLRANCDLRRQIDEQQKMLEKYKERLNRCVTMSKKLLIEKSKQEKMACRDKSMQDRLRLGHFTTVRHGASFTEQWTDGYAFQNLIKQQERINSQREEIERQRKMLAKRKPPAMGQAPPATNEQKQRKSKTNGAENETPSSGNTELKDTAPALGAHSLLRLTLAEYHEQEEIFKLRLGHLKKEEAEIQAELERLERVRNLHIRELKRIHNEDNSQFKDHPTLNDRYLLLHLLGRGGFSEVYKAFDLTEQRYVAVKIHQLNKNWRDEKKENYHKHACREYRIHKELDHPRIVKLYDYFSLDTDSFCTVLEYCEGNDLDFYLKQHKLMSEKEARSIIMQIVNALKYLNEIKPPIIHYDLKPGNILLVNGTACGEIKITDFGLSKIMDDDSYNSVDGMELTSQGAGTYWYLPPECFVVGKEPPKISNKVDVWSVGVIFYQCLYGRKPFGHNQSQQDILQENTILKATEVQFPPKPVVTPEAKAFIRRCLAYRKEDRIDVQQLACDPYLLPHIRKSVSTSSPAGAAIASTSGASNNSSSN
notes: Tousled-like kinase 2 (TLK2), human; lacks the 1-190 N-terminal fragment, holds the 191-450 region around the CC domains, the kinase domain and the C-tail; the text says once '1-191' and once '1-190' for the missing segment; also called TLK2L; source: E. coli NiCo21(DE3) or Rosetta (DE3) pLysS, co-expressed with lambda phosphatase, purified (Ni-NTA, monoQ, SEC)
With B1, the “stoichiometry N” value came out at 2.

B2: ΔN-TLK2-p, phosphorylated ΔN-TLK2 (domain or fragment, human, UniProt Q86UE8 191-772, looked up)
chain: B1 chain
modifications: autophosphorylated (not co-expressed with the lambda phosphatase); 41 phosphosites out of 67 possible Ser/Thr sites, mapped in Fig. 3c
notes: Tousled-like kinase 2 (TLK2), human; lacks the 1-190 N-terminal fragment, holds the CC region, the kinase domain and the C-tail; also called active homodimer (ΔN-TLK2); source: E. coli NiCo21(DE3) or Rosetta (DE3) pLysS, without lambda phosphatase, purified (Ni-NTA, monoQ, heparin, SEC)
B2: the binding result is “binds”.

B3: ΔN-TLK2-KD, kinase-dead ΔN-TLK2 (D613A) (domain or fragment, human, UniProt Q86UE8 191-772, looked up)
chain: B1 chain with D423A
notes: Tousled-like kinase 2 (TLK2), human; ΔN-TLK2 (lacks the 1-190 N-terminal fragment) with the D613A mutation; also called ΔN-TLK-KD; kinase-dead homodimer; source: E. coli NiCo21(DE3) or Rosetta (DE3) pLysS, purified
Turning to B3, the binding result was “binds”.
